Results on one substance are retold here after PMC4114562.

The experiment has as its target rFKBP22 (a recombinant E. coli FKBP22) (Escherichia coli) (UniProt P0A9L3). As to the kind of experiment: cross-linking; glutaraldehyde-mediated chemical cross-linking of rFKBP22 (bound/unbound with rapamycin) at 30°–85°C, analysed by SDS-13.5% PAGE.

What is called stoichiometry N is a count of units in the complex or per binding partner. In the case of “rFKBP22 (a recombinant E. coli FKBP22) (from UniProt P0A9L3 1-206) (enzyme)”, the stoichiometry N worked out at 2.
